{"source": "the RNAGym collection of RNA variant scans (doi:10.7554/elife.80360)", "parents": {"B1": {"name": "Twister Ribozyme (parent)", "chain": "AACACUGCCAAUGCCGGUCCCAAGCCCGGAUAAAAGUGGAGGGGGCGG"}}}
{"variants_of": "B1", "assay": "self-cleavage, relative activity (ratio to wild type); higher = more cleavage; co-transcriptional"}
{"variant": "AACACUGCCAAUGCCGGUCCCAAGCCCGGUUAAAAGUGGUGGGGGCGG", "note": "[A30U A40U]", "self-cleavage": 0.152}
{"variant": "AACACUGCCAAUGCCGGUCCCAAGCCCGGACAAAUGUGGAGGGGGCGG", "note": "[U31C A35U]", "self-cleavage": 1.06}
{"variant": "AACACUGCCAAUGCCGGUCCCAAGCCCGGGCAAAAGUGGAGGGGGCGG", "note": "[A30G U31C]", "self-cleavage": 0.988}
{"variant": "AACACUGCCAAUGCCGGUCCCAAGCCCGGAAGAAAGUGGAGGGGGCGG", "note": "[U31A A32G]", "self-cleavage": 0.985}
{"variant": "AACACUGCCAAUGCCGGUCCCAAGCCCGGACAAAAGUAGAGGGGGCGG", "note": "[U31C G38A]", "self-cleavage": 0.81}
{"variant": "AACACUGCCAAUGCCGGUCCCAAGCCCGGACAAAAGUUGAGGGGGCGG", "note": "[U31C G38U]", "self-cleavage": 0.904}
{"variant": "AACACUGCCAAUGCCGGUCCCAAGCCCGGGUAAAAGUGGAGGGGACGG", "note": "[A30G G45A]", "self-cleavage": 0.901}
{"variant": "AACACUGCCAAUGCCGGUCCCAAGCCCGGGUAAAAGUGGAGGGGUCGG", "note": "[A30G G45U]", "self-cleavage": 0.757}
{"variant": "AACACUGCCAAUGCCGGUCCCAAGCCCGGAAAAAAGUGGAGGGGGCGU", "note": "[U31A G48U]", "self-cleavage": 0.881}
{"variant": "AACACUGCCAAUGCCGGUCCCAAGCCCGGAAAAAAGUGGAGGGGGCGA", "note": "[U31A G48A]", "self-cleavage": 0.717}
{"variant": "AACACUGCCAAUGCCGGUCCCAAGCCCGGAAAAAAGUGGAGGGGGCGC", "note": "[U31A G48C]", "self-cleavage": 1.19}
{"variant": "AACACUGCCAAUGCCGGUCCCAAGCCCGGUUAAAAGUGGAGGGGGCGC", "note": "[A30U G48C]", "self-cleavage": 1.07}
{"variant": "AACACUGCCAAUGCCGGUCCCAAGCCCGGAAAAAAGUGGAGGGGGAGG", "note": "[U31A C46A]", "self-cleavage": 0.816}
{"variant": "AACACUGCCAAUGCCGGUCCCAAGCCCGGAGAAACGUGGAGGGGGCGG", "note": "[U31G A35C]", "self-cleavage": 1.06}
{"variant": "AACACUGCCAAUGCCGGUCCCAAGCCCGGAGAAAGGUGGAGGGGGCGG", "note": "[U31G A35G]", "self-cleavage": 0.682}
{"variant": "AACACUGCCAAUGCCGGUCCCAAGCCCGGAGAAAAGUGGAGGGGACGG", "note": "[U31G G45A]", "self-cleavage": 0.99}
{"variant": "AACACUGCCAAUGCCGGUCCCAAGCCCGGAAAAAACUGGAGGGGGCGG", "note": "[U31A G36C]", "self-cleavage": 0.388}
{"variant": "AACACUGCCAAUGCCGGUCCCAAGCCCGGAAAAAAUUGGAGGGGGCGG", "note": "[U31A G36U]", "self-cleavage": 0.292}
{"variant": "AACACUGCCAAUGCCGGUCCCAAGCCCGGAAAAAAAUGGAGGGGGCGG", "note": "[U31A G36A]", "self-cleavage": 0.614}
{"variant": "AACACUGCCAAUGCCGGUCCCAAGCCCGGAAAAAAGUGGAGGGAGCGG", "note": "[U31A G44A]", "self-cleavage": 0.689}
{"variant": "AACACUGCCAAUGCCGGUCCCAAGCCCGGAAAAAAGUGGAGGGUGCGG", "note": "[U31A G44U]", "self-cleavage": 0.83}
{"variant": "AACACUGCCAAUGCCGGUCCCAAGCCCGGUUAACAGUGGAGGGGGCGG", "note": "[A30U A34C]", "self-cleavage": 0.17}
{"variant": "AACACUGCCAAUGCCGGUCCCAAGCCCGGACAAAAGUGGAGGGGGCUG", "note": "[U31C G47U]", "self-cleavage": 1.02}
{"variant": "AACACUGCCAAUGCCGGUCCCAAGCCCGGACAAAAGUGGAGGGGGCCG", "note": "[U31C G47C]", "self-cleavage": 0.745}
{"variant": "AACACUGCCAAUGCCGGUCCCAAGCCCGGGUAAAAGUGGAGGGGGCGA", "note": "[A30G G48A]", "self-cleavage": 0.958}
{"variant": "AACACUGCCAAUGCCGGUCCCAAGCCCGGAAAACAGUGGAGGGGGCGG", "note": "[U31A A34C]", "self-cleavage": 0.536}
{"variant": "AACACUGCCAAUGCCGGUCCCAAGCCCGGUUAAAGGUGGAGGGGGCGG", "note": "[A30U A35G]", "self-cleavage": 0.772}
{"variant": "AACACUGCCAAUGCCGGUCCCAAGCCCGGUUAAACGUGGAGGGGGCGG", "note": "[A30U A35C]", "self-cleavage": 1.07}
{"variant": "AACACUGCCAAUGCCGGUCCCAAGCCCGGUUAAAUGUGGAGGGGGCGG", "note": "[A30U A35U]", "self-cleavage": 0.812}
{"variant": "AACACUGCCAAUGCCGGUCCCAAGCCCGGAGAAAAGUGAAGGGGGCGG", "note": "[U31G G39A]", "self-cleavage": 0.623}
{"variant": "AACACUGCCAAUGCCGGUCCCAAGCCCGGAGAAAAGUGCAGGGGGCGG", "note": "[U31G G39C]", "self-cleavage": 0.144}
{"variant": "AACACUGCCAAUGCCGGUCCCAAGCCCGGACAAAAAUGGAGGGGGCGG", "note": "[U31C G36A]", "self-cleavage": 0.725}
{"variant": "AACACUGCCAAUGCCGGUCCCAAGCCCGGUUAAAAGAGGAGGGGGCGG", "note": "[A30U U37A]", "self-cleavage": 0.742}
{"variant": "AACACUGCCAAUGCCGGUCCCAAGCCCGGUUAAAAGCGGAGGGGGCGG", "note": "[A30U U37C]", "self-cleavage": 0.72}
{"variant": "AACACUGCCAAUGCCGGUCCCAAGCCCGGACAAAAGUGGAGGGGUCGG", "note": "[U31C G45U]", "self-cleavage": 0.871}
{"variant": "AACACUGCCAAUGCCGGUCCCAAGCCCGGACAAAAGUGGAGGGGCCGG", "note": "[U31C G45C]", "self-cleavage": 0.593}
{"variant": "AACACUGCCAAUGCCGGUCCCAAGCCCGGAGAAAAGUGGAGGGGGCUG", "note": "[U31G G47U]", "self-cleavage": 0.92}
{"variant": "AACACUGCCAAUGCCGGUCCCAAGCCCGGUUAAAAGUGGAGGGGGCGG", "note": "[A30U]", "self-cleavage": 0.984}
{"variant": "AACACUGCCAAUGCCGGUCCCAAGCCCGGUAAAAAGUGGAGGGGGCGG", "note": "[A30U U31A]", "self-cleavage": 0.931}
{"variant": "AACACUGCCAAUGCCGGUCCCAAGCCCGGAGAAAAGUAGAGGGGGCGG", "note": "[U31G G38A]", "self-cleavage": 0.937}
{"variant": "AACACUGCCAAUGCCGGUCCCAAGCCCGGAGAAAAGUUGAGGGGGCGG", "note": "[U31G G38U]", "self-cleavage": 0.778}
{"variant": "AACACUGCCAAUGCCGGUCCCAAGCCCGGACGAAAGUGGAGGGGGCGG", "note": "[U31C A32G]", "self-cleavage": 0.997}
{"variant": "AACACUGCCAAUGCCGGUCCCAAGCCCGGACCAAAGUGGAGGGGGCGG", "note": "[U31C A32C]", "self-cleavage": 0.965}
{"variant": "AACACUGCCAAUGCCGGUCCCAAGCCCGGUUAUAAGUGGAGGGGGCGG", "note": "[A30U A33U]", "self-cleavage": 0.873}
{"variant": "AACACUGCCAAUGCCGGUCCCAAGCCCGGUUAGAAGUGGAGGGGGCGG", "note": "[A30U A33G]", "self-cleavage": 1.03}
{"variant": "AACACUGCCAAUGCCGGUCCCAAGCCCGGACAAAAGUGGAGGGUGCGG", "note": "[U31C G44U]", "self-cleavage": 1.01}
{"variant": "AACACUGCCAAUGCCGGUCCCAAGCCCGGAGAAAAGUGGAGGAGGCGG", "note": "[U31G G43A]", "self-cleavage": 0.324}
{"variant": "AACACUGCCAAUGCCGGUCCCAAGCCCGGAGAAAAAUGGAGGGGGCGG", "note": "[U31G G36A]", "self-cleavage": 0.662}
{"variant": "AACACUGCCAAUGCCGGUCCCAAGCCCGGAGAAAACUGGAGGGGGCGG", "note": "[U31G G36C]", "self-cleavage": 0.712}
{"variant": "AACACUGCCAAUGCCGGUCCCAAGCCCGGAGAAAAGUGGCGGGGGCGG", "note": "[U31G A40C]", "self-cleavage": 0.224}
{"variant": "AACACUGCCAAUGCCGGUCCCAAGCCCGGAGAAAAGUGGGGGGGGCGG", "note": "[U31G A40G]", "self-cleavage": 0.0918}
{"variant": "AACACUGCCAAUGCCGGUCCCAAGCCCGGGUAAAAGUGGAGGGGGCCG", "note": "[A30G G47C]", "self-cleavage": 0.534}
{"variant": "AACACUGCCAAUGCCGGUCCCAAGCCCGGACAAAAGUGGAUGGGGCGG", "note": "[U31C G41U]", "self-cleavage": 0.764}
{"variant": "AACACUGCCAAUGCCGGUCCCAAGCCCGGACAAAAGUGUAGGGGGCGG", "note": "[U31C G39U]", "self-cleavage": 0.19}
